Measured values: US20220298237A1 (KEIO UNIVERSITY, published 2022)

T1: oligopeptide ATYPSGHLDM (SEQ ID NO: 1) (human and mouse)
T1 construct: Synthetic peptide; positions 148 to 157 of the human AQP3 polypeptide, identical in mouse; also called peptide used for immunization; oligopeptide 5
T1 peptide: ATYPSGHLDM


Target: T1, oligopeptide ATYPSGHLDM (SEQ ID NO: 1)
Test: ELISA on peptide, Fab

| Binder | binding result |
| --- | --- |
| BC-A8 (Fab) (Fab, V domains shown) VH: QTVKESGGRLVTPGAPLTLTCTVSRFSLSSYAMTWVRQAPGKGLEWIGIINNDGSSSTWYASWVKGRFTISKTSTTMDLKMTSLTTEDTATYFCARGGTSGYDIWGPGTLVTVSL VL: AQGLTQTPSPVSAAVGGTVTINCQSSPSVYKNYLSWYQQKPGQPPKLLIYGASTLASGVPSRFKGSGSGTQFTLTISDVQCDDAATYYCAGGYRGSSDIFAFGGGTEVVVK | binds |
| SC-D1 (Fab) (Fab, V domains shown) VH: QSLEESRGRLVTPGGSLTLTCTVSGFSLSSYAMTWVRQAPGKGLEWIGIINNDGVSSTWYASWVKGRFTISKTSTTMDLKMTSLTTEDTATYFCARGGTSGYDIWGPGTLVTVSL VL: DPMMTQTPSPVSAAVGGTVTINCQSSPSVYKNYLSWYQQKPGQPPKLLIYGASTLASGVPSRFKGSGSGTQFTLTISGVQCDDAATYYCAGGYRGSSDIFAFGGGTEVVVK | binds |
| BC-E2 (Fab) (Fab, V domains shown) VH: QEQLKESGGRLVTPGAPLTLTCTVSRFSLSSYAMTWVRQAPGKGLEWIGIINNDGISSTWYASWVKGRFTISKTSTTMDLKMTSLTTEDTATYFCARGGTSGYDIWGPGTLVTVSL VL: AVVLTQTPSPVSAAVGGTVTINCQSSPSVYKNYLSWYQQKPGQPPKLLIYKASTLASGVPSRFKGSGSGTQFTLTISDVQCDDAATYYCAGGYRGSSDIFAFGGGTEVVVK | binds |
| BC-B4 (Fab) (Fab, V domains shown) VH: QSVEESGGRLVTPGGSLTLTCTVSRFSLSSYAMTWVRQAPGKGLEWIGIINNDGISSTWYASWVKGRFTISKTSTTMDLKMTSLTTEDTATYFCARGGTSGYDIWGPGTVVTVSL VL: ALVLTQTPSPVSAAVGGTVTINCQSSQSVYKNYLSWYQQKPGQPPKLLIYGASTLASGVPSRFKGSGSGTQFTLTISDVQCDDAATYYCAGGYRGSGDIFAFGGGTEVVVK | binds |
| SC-F6 (Fab) (Fab, V domains shown) VH: QSVKESGGRLVTPGAPLTLTCTVSRFSLSSYAMTWVRQAPGKGLEWIGIINNDGISSTWYASWVKGRFTISKTSTTMDLKMTSLTTEDTATYFCARGGTSGYDIWGPGTLVTVSL VL: AQGMTQTPASVSAAVGGTVTINCQSSPSVYKNYLSWYQQKSGQPPKLLIYGASTLASGVPSRFKGSGSGTQFTLTISDVQCDDAATYYCAGGYRGSSDIFAFGGGTEVVVK | binds |
| BC-E4 (Fab) (Fab, V domains shown) VH: QSVKESGGRLVAPGTPLTLTCAVSGFSLSSYAMTWVRQAPGKGLEWIGIINNDGRSSTWYASWVKGRFTISKTSTTMDLKMTSPTTEDTATYFCARGGTSGYDIWGPGTLVTVSL VL: AQGMTQTPSPVSAAVGGTVTINCQSSPSVYKNYLSWYQQKPGQPPKLLIYGASTLASGVPSRFKGSGSGTRFTLTISDVQCDDAATYYCAGGYRGSSDIFAFGGGTEVVVK | binds |
| SC-G8 (Fab) (Fab, V domains shown) VH: QSVEESGGRLVMPGGSLTLTCTASGFSLSSYAMTWVRQAPGKGLEWIGIINNDGSGSTWYASWVKGRFTISKTSTTMDLKMTSLTTEDTATYFCARGGTSGYDIWGPGTLVTVSL VL: AAVLTQTPSPVSAAVGGTVTINCQSSPSVYKNYLSWYQQKPGQPPKLLIYKASTLASGVPSRFKGSGSGTQFTLTISDVQCDDAATYYCAGGYRGYSDIFAFGGGTEVVVK | binds |
| BC-E11 (Fab) (Fab, V domains shown) VH: QSVKESGGRLVAPGTPLTLTCAVSGFSLSSYAMTWVRQAPGKGLEWIGIINNDGRSSTWYASWVKGRFTISKTSTTMDLKMTSPTTEDTATYFCARGGTSGYDIWGPGTLVTVSL VL: AQGMTQTPSPVSAAVGGTVTINCQSSPSVYKNYLSWYQQKPGQPPKLLIYGASTLASGVPSRFKGSGSGTRFTLTISDVQCDDAATYYCAGGYRGSSDIFAFGGGTEVVVK | binds |
| BC-A3 (Fab) (Fab, V domains shown) VH: QTVKESGGRLVTPGAPLTLTCTVSRFSLSSYAMTWVRQAPGKGLEWIGIINNDGVSSTWYASWVKGRFTISKTSTTMDLKMTSLTTEDTATYFCARGGTSGYDIWGPGTLVTVSL VL: AQVLTQTPASVSAAVRGTVTINCQSSPSVYKNYLSWYQQKSGQPPKLLIYGASTLASGVPSRFKGSGSGTQFTLTISDVQCDDAATYYCAGGYRGSSDIFAFGGGTEVVVK | binds |
| BC-F2 (Fab) (Fab, V domains shown) VH: QSVKESGGRLVAPGTPLTLTCAVSGFSLSSYAMTWVRQAPGKGLEWIGIINNDGRSSTWYASWVKGRFTISKTSTTMDLKMTSPTTEDTATYFCARGGTSGYDIWGPGTLVTVSL VL: AQGMTQTPSPVSAAVGGTVTINCQSSPSVYKNYLSWYQQKPGQPPKLLIYGASTLASGVPSRFKGSGSGTRFTLTISDVQCDDAATYYCAGGYRGSSDIFAFGGGTEVVVK | binds |
| BC-G6 (Fab) (Fab, V domains shown) VH: QSVEESGGRLVTPGGSLTLTCTASGFSLSGYAMTWVRQAPGKGLEWIGIINNDGISSTWYASWVKGRFTISKTSTTMDLKMTSLTTEDTATYFCARGGTSGYDIWGPGTLVTVSL VL: ALVMTQTPSPVSAAVGGTVTINCQSSPSVYKNYLSWYQQKPGQPPKLLIYGASTLASGVPSRFKGSGSGTQFTLTISDVQCDDAATYYCAGGYRGSSDIFAFGGGTEVVVK | binds |
| BC-E3 (Fab) (Fab, V domains shown) VH: QSVKESGGRLVAPGTPLTLTCAVSGFSLSSYAMTWVRQAPGKGLEWIGIINNDGRSSTWYASWVKGRFTISKTSTTMDLKMTSPTTEDTATYFCARGGTSGYDIWGPGTLVTVSL VL: AQGMTQTPSPVSAAVGGTVTINCQSSPSVYKNYLSWYQQKPGQPPKLLIYGASTLASGVPSRFKGSGSGTRFTLTISDVQCDDAATYYCAGGYRGSSDIFAFGGGTEVVVK | binds |
| SC-D10 (Fab) (Fab, V domains shown) VH: QSVKESGGRLVTPGGSLTLTCTVSRFSLSSYAMTWVRQAPGKGLEWIGIINNDGVSSTWYASWVKGRFTISKTSTTMDLKMTSLTTEDTATYFCARGGTSGYDIWGPGTLVTVSL VL: ALVMTQTPSPVSAAVGGTVTTNCQSSPSVYKNYLSWYQQKPGQPPKLLIYKASTLASGVPSRFSGSGSGTQFTLTISDVQCDDAATYYCAGGYRGSSDIFAFGGGTEVVVK | binds |
| BC-F7 (Fab) (Fab, V domains shown) VH: QSVEESGGRLVTPGGSLTLTCTVSRFSLSSYAMTWVRQAPGKGLEWIGIINNDGISSTWYASWVKGRFTISKTSTTMDLKMTSLTTEDTATYFCARGGTSGYDIWGPGTVVTVSL VL: ALVLTQTPSPVSAAVGGTVTINCQSSQSVYKNYLSWYQQKPGQPPKLLIYGASTLASGVPSRFKGSGSGTQFTLTISDVQCDDAATYYCAGGYRGSGDIFAFGGGTEVVVK | binds |
| BC-H4 (Fab) (Fab, V domains shown) VH: QQLKESGGRLVTPGAPLTLTCTVSRFSLSSYAMTWVRQAPGKGLEWIGIINNDGVSSTWYASWVKGRFTISKTSTTMDLKMTSLTTEDTATYFCARGGTSGYDIWGPGTLVTVSS VL: ALVLTQTPSPVSAAVGGTVTINCQSSPSVYKNYLSWYQQKPGQPPKLLIYGASTLASGVPSRFKGSGSGTQFTLTISDVQCDDAATYYCAGGYRGSGDIFAFGGGTEVVVK | binds |

Further lines, results first:

| binding result | Binder |
| --- | --- |
| binds | BC-A9 (Fab) (Fab, V domains shown) VH: QSVEESGGRLVTPGGSLTLTCTVSRFSLSSYAMTWVRQAPGKGLEWIGIINNDGISSTWYASWVKGRFTISKTSTTMDLKMTSLTTEDTATYFCARGGTSGYDIWGPGTVVTVSL VL: AQGLTQTPASVSAAVGGTVTINCQSSPSVYKNYLSWYQQKSGQPPKLLIYGASTLASGAPSRFKGSGSGTQFTLTISDVQCDDAATYYCAGGYRGSSDIFAFGGGTEVVVK |
| binds | BC-E1 (Fab) (Fab, V domains shown) VH: QSVKESGGRLVAPGTPLTLTCAVSGFSLSSYAMTWVRQAPGKGLEWIGIINNDGRSSTWYASWVKGRFTISKTSTTMDLKMTSPTTEDTATYFCARGGTSGYDIWGPGTLVTVSL VL: AQGMTQTPSPVSAAVGGTVTINCQSSPSVYKNYLSWYQQKPGQPPKLLIYGASTLASGVPSRFKGSGSGTRFTLTISDVQCDDAATYYCAGGYRGSSDIFAFGGGTEVVVK |
| binds | SC-B2 (Fab) (Fab, V domains shown) VH: QEQLMESRGRLVTPGGSLTLTCTVSRFSLSNYAMTWVRQAPGKGLEWIGIINNDGISSTWYASWVKGRFTISKTSTTMDLKMTSLTTEDTATYFCARGGTSGYDIWGPGTLVTVSL VL: AQGPTQTPSPVSAAVGGTVTINCQSSPSVYKNYLSWYQQKPGQPPKLLIYGASTLASGVPSRFKGSGSGTQFTLTISDVQCDDAATYYCAGGYRGSGDIFAFGGGTEVVVK |
| binds | BC-C8 (Fab) (Fab, V domains shown) VH: QSLEESGGRLVTPGGSLTLTCTVSRFSLSSYAMTWVRQAPGKGLEWIGIINNDGISSTWYASWVKGRFTISKTSTTMDLKMTSLTTEDTATYFCARGGTSGYDIWGPGTVVTVSL VL: ALVLTQTPSPVSAAVGGTVTINCQSSPSVYKNYLSWYQQKPGQPPKLLIYGASTLASGVPSRFKGSGSGTQFTLTISDVQCDDAATYYCAGGYRGSSDIFAFGGGTEVVVK |
| binds | SC-H10 (Fab) (Fab, V domains shown) VH: QSLEESGGRLVTPGAPLTLTCTVSRFSLSSYAMTWVRQAPGKGLEWIGIINNDGISSTWYASWVKGRFTISKTSTTMDLKMTSLTTEDTATYFCARGGTSGYDIWGPGTLVTVSL VL: AQGLTQTPSPVSAAVGGTVTINCQSSPSVYKNYLSWYQQKPGQPPKLLIYGASTLASGVPSRFSGSGSGTQFTLTISDVQCDDAATYYCAGGYRGSSDIFAFGGGTEVVVK |
| binds | SC-C7 (Fab) (Fab, V domains shown) VH: QTVKESGGRLVTPGAPLTLTCTVSRFSLSGYAMTWVRQAPGKGLEWIGIINNDISGSTWYASWVKGRFTISKTSTTMDLKMTSLTTEDTATYFCARGGTSGYDIWGPGTLVTVSS VL: DVVMTQTPSPVSAAVGGTVTINCQSSPSVYKNYLSWYQQKPGQPPKLLIYGASTLASGVPSRFKGSGSGTQFTLTISDVQCDDAATYYCAGGYRGSSDIFAFGGGTEVVVK |
